US9682130B2 (priority 2015, dated 2017)
Like-named read-outs stand apart in the source and are kept apart here.

What was measured:
[1] = Jones Dye test for nasolacrimal duct blockage; format: in vivo, NZW rabbit; settings: Day 21, all Ranpirnase concentrations
Description: The animals were also assayed on day 21 for nasolacrimal duct blockage by performing a Jones Dye test. On Day 21, a drop of sodium fluorescein was placed in each eye and the time to the dye appearing in the ipsilateral nostril was measured.

MA-104 cells [2] = assay: Toxicity in uninfected wells (CC50); settings: for Yield Reduction Assay CC50: yield reduction columns
HIV-1 = settings: final concentrations that are not cytotoxic; cited from earlier work
[3] = tested on: Human Adenovirus 8 (Ad8 strain 13306); assay: Neutral red lysosomal uptake assay, Adenovirus 8; format: cell-based; settings: Adenovirus 8, MA-104 cells
Description: To assess in vitro cytotoxicity, both a cytopathic effects of a virus (CPE) regression assay and a neutral red lysosomal uptake cell viability assay was performed essentially as described in, e.g., Repetto, et al., Neutral Red Uptake Assay for the Estimation of Cell Viability/Cytotoxicity, Nat. Protoc. 3: 1125-1131 (2008), the content of which is hereby incorporated by reference in its entirety. Ninety-six-well plates were seeded with MA-104 cells at 1×10^5 cells/mL and incubated overnight at 37° C. with 5% CO2. […] Each dilution was added to 5 wells of a 96-well plate with 80% to 100% confluent cells, and three wells of each dilution were then infected with one of the two test viruses. Two wells remained uninfected as controls for toxicity. Six wells per plate were set aside as uninfected, untreated cell controls, and six wells per plate were infected with no treatment as virus controls. […] Assay plates were incubated at 37° C. with 5% CO2. […] After CPE reduction assay was completed, a neutral red lysosomal uptake assay was conducted by filling each well with 0.011% (m/v) neutral red, a vital stain. The plates then were incubated for about 2 hours at 37° C. in the dark. […] The plates were then read on a spectrophotometer at 540 nm to quantify the neutral red taken up by the healthy cells. […]

[4] = Eye irritation, Draize scale (MMTS), Ad5/NZW rabbit ocular model; format: in vivo; settings: for Ocular irritation MMTS score, Day 3 / Ocular irritation MMTS score, Day 9 / Ocular irritation class, Day 3 / Ocular irritation class, Day 9: topical both eyes 8x daily
Description: To conduct this in vivo assay, 25 NZW rabbit were anesthetized using the general anesthesia ketamine and xylazine and the topical anesthesia proparacaine. Each rabbit was then topically inoculated with 50 μL of Adenovirus serotype Ad5 (3×10^7 pfu/mL) in both eyes after corneal epithelial scarification (12 cross-hatched strokes of a 25 sterile needle). Eyes were closed and gently rubbed for 5 seconds to ensure contact of the virus on all ocular surfaces. Inoculation of both eyes allowed for the reduction in the number of animals needed without jeopardizing statistical validity. […] All topical solutions (37 μL drops) were instilled with an electronic pipette (EDP; Rainin, Oakland, Calif.) set in the multi-dispense mode. Ocular swabbing to recover adenovirus from tear film and corneal and conjunctival surfaces, after topical anesthesia with proparacaine, was performed at least 1 hour after the final dose on days 0, 1, 3, 4, 5, 7, 9, 11, and 14 after inoculation. The ocular samples from each eye was placed individually into tubes containing 1 mL of medium and were frozen at −70° C. pending viral plaque assay.
The animals were assayed for eye irritation using a Draize scale for ocular lesions. Classification of eye irritation was evaluated for both eyes of each rabbit on day 3 and day 9 using the maximum mean total score (MMTS; Table 4). See, e.g., Kay and Calandra, Interpretation of Eye Irritation Tests, J. Soc. Cos. Chem. 13: 281-289 (1962), the content of which is hereby incorporated by reference in its entirety. The MMTS score used was as follows: 0.0-0.5, Non-Irritating (N); 0.6-2.5, Practically Non-Irritating (PN); 2.6-15.0, Minimally Irritating (M1); 15.1-25.0, Mildly Irritating (M2); 25.1-50.0, Moderately Irritating (M3); 50.1-80.0, Severely Irritating (S); 80.1-100.0, Extremely Irritating (E); and 100.1-110.0, Maximally Irritating (Mx).

NFκB = settings: small in vitro study; cited from earlier work
MA-104 cells [5] = tested on: MA-104 cells
[6] = tested on: Human Adenovirus 5 (AD5 strain NYS #98-1836); assay: microbe, parasite or virus in culture; format: cell-based; settings: Adenovirus 5, MA-104 cells
Description: To assess in vitro cytotoxicity, both a cytopathic effects of a virus (CPE) regression assay and a neutral red lysosomal uptake cell viability assay was performed essentially as described in, e.g., Repetto, et al., Neutral Red Uptake Assay for the Estimation of Cell Viability/Cytotoxicity, Nat. Protoc. 3: 1125-1131 (2008), the content of which is hereby incorporated by reference in its entirety. Ninety-six-well plates were seeded with MA-104 cells at 1×10^5 cells/mL and incubated overnight at 37° C. with 5% CO2. […] Each dilution was added to 5 wells of a 96-well plate with 80% to 100% confluent cells, and three wells of each dilution were then infected with one of the two test viruses. Two wells remained uninfected as controls for toxicity. Six wells per plate were set aside as uninfected, untreated cell controls, and six wells per plate were infected with no treatment as virus controls. […] Assay plates were incubated at 37° C. with 5% CO2. […] After CPE reduction assay was completed, a neutral red lysosomal uptake assay was conducted by filling each well with 0.011% (m/v) neutral red, a vital stain. The plates then were incubated for about 2 hours at 37° C. in the dark. The unincorporated neutral red solution was removed from the wells and the incorporated dye was then eluted by adding Sorensen's citrate-buffered ethanol. The plates were then read on a spectrophotometer at 540 nm to quantify the neutral red taken up by the healthy cells. The optical density of test wells was converted to percent of cell control and normalized to the virus controls.
The concentration of test compound required to inhibit CPE by 50% or reduce red uptake into cells by 50% (EC50) was calculated by regression analysis. The toxicity of the compound without virus present was similarly calculated using the uninfected wells treated with test compounds compared with untreated cell controls. The concentration of compound that would cause 50% cytotoxic effects in the absence of virus (CC50) was estimated by linear regression analysis. The selectivity index (SI) is the CC50 divided by EC50.

B1: Ranpirnase (protein, UniProt P22069 1-104, looked up)
Protein P-30: QDWLTFQKKHITNTRDVDCDNIMSTNLFHCKDKNTFIYSRPEPVKAICKGIIASKNVLTTSEFYLSDCNVTSRPCKYKLKKSTNKFCVTCENQAPVHFVGVGSC
notes: amphibian ribonuclease originally isolated from oocytes and/or early embryos of Rana pipiens; pancreatic ribonuclease (RNase A) superfamily, about 12 kD
- Blocked nasolacrimal ducts, Jones Dye test [1]: no Ranpirnase treated rabbits, regardless of concentration, resulted in blocked nasolacrimal ducts
- Neutral Red Assay CC50 (MA-104 cells [2]; Adenovirus 5 section): 52 µg/mL
- Yield Reduction Assay CC50 (MA-104 cells [2]; Adenovirus 5 section): 52 µg/mL
- CPE Reduction Assay CC50 (MA-104 cells [2]; Adenovirus 8 section, CPE scoring): 59 µg/mL
- Neutral Red Assay CC50 (MA-104 cells [2]; Adenovirus 8 section): 44 µg/mL
- Yield Reduction Assay CC50 (MA-104 cells [2]; Adenovirus 8 section): 59 µg/mL
- Inhibition of replication of HIV-1 (HIV-1): up to 99.9%
- Neutral Red Assay EC50 [3]: <100 µg/mL
- Eye irritation compared to saline and Cidofovir controls ([4]; 0.25 μM Ranpirnase): no eye irritation as compared to both the saline and Cidofovir controls
- Ocular irritation MMTS score, Day 3 ([4]; 0.25 μM Ranpirnase (group 1C)): 7.5
- Ocular irritation MMTS score, Day 9 ([4]; 0.25 μM Ranpirnase (group 1C)): 22.5
- Ocular irritation class, Day 3 ([4]; 0.25 μM Ranpirnase (group 1C)): M1 (2.6-15.0, Minimally Irritating (M1))
- Ocular irritation class, Day 9 ([4]; 0.25 μM Ranpirnase (group 1C)): M2 (15.1-25.0, Mildly Irritating (M2))
- Ocular irritation MMTS score, Day 3 ([4]; 2.5 μM Ranpirnase (group 1B)): 14.6
- Ocular irritation MMTS score, Day 9 ([4]; 2.5 μM Ranpirnase (group 1B)): 60.7
- Ocular irritation class, Day 3 ([4]; 2.5 μM Ranpirnase (group 1B)): M1 (2.6-15.0, Minimally Irritating (M1))
- Ocular irritation class, Day 9 ([4]; 2.5 μM Ranpirnase (group 1B)): S (50.1-80.0, Severely Irritating (S))
- Ocular irritation MMTS score, Day 3 ([4]; 25 μM Ranpirnase (group 1A)): 22.0
- Ocular irritation MMTS score, Day 9 ([4]; 25 μM Ranpirnase (group 1A)): 85.0
- Ocular irritation class, Day 3 ([4]; 25 μM Ranpirnase (group 1A)): M2 (15.1-25.0, Mildly Irritating (M2))
- Ocular irritation class, Day 9 ([4]; 25 μM Ranpirnase (group 1A)): E (80.1-100.0, Extremely Irritating (E))
- Ocular toxicity compared to Saline and CDV controls ([4]; 25, 2.5 and 0.25 μM Ranpirnase, Ad5/NZW rabbit ocular model): dose dependent ocular toxicity
- Translocation of NFκB into the nucleus (NFκB): inhibits translocation of NFκB into the nucleus
- CPE Reduction Assay CC50 (MA-104 cells [5]): 75 µg/mL
- Neutral Red Assay EC50 [6]: <100 µg/mL
